According to US20060258842A1 (IQ THERAPEUTICS, published 2006):

Key:
[1] = biological target: T1, GST fusion of protective antigen domain 1 (Bacillus anthracis, UniProt P13423 30-287); assay: ELISA, plate coated with GST-PA domain protein, goat anti-human IgG HRP
T1 construct: domain: 1

[2] = biological target: T2, GST fusion of protective antigen domains 1 to 4 (Bacillus anthracis, UniProt P13423 30-764); assay: as above
T2 construct: domain: 1 to 4

[3] = biological target: T3, GST fusion of protective antigen domains 3 to 4 (Bacillus anthracis, UniProt P13423 517-764); assay: as above
T3 construct: domain: 3 to 4

[4] = biological target: T4, GST fusion of protective antigen domain 4 (Bacillus anthracis, UniProt P13423 625-764); assay: as above
T4 construct: domain: 4

[5] = biological target: T5, GST fusion of protective antigen domains 1 to 2 (Bacillus anthracis, UniProt P13423 30-516); assay: as above
T5 construct: domain: 1 to 2

[6] = biological target: T6, GST fusion of protective antigen domains 1 to 3 (Bacillus anthracis, UniProt P13423 30-624); assay: as above
T6 construct: domain: 1 to 3

[7] = biological target: Bacillus anthracis Protective Antigen (Bacillus anthracis, UniProt P13423 30-764); assay: SPR (BIAcore 3000), PA amine-coupled to CM5 chip, antibody as analyte
Sequence of Bacillus anthracis Protective Antigen (P13423 30-764 limits assumed): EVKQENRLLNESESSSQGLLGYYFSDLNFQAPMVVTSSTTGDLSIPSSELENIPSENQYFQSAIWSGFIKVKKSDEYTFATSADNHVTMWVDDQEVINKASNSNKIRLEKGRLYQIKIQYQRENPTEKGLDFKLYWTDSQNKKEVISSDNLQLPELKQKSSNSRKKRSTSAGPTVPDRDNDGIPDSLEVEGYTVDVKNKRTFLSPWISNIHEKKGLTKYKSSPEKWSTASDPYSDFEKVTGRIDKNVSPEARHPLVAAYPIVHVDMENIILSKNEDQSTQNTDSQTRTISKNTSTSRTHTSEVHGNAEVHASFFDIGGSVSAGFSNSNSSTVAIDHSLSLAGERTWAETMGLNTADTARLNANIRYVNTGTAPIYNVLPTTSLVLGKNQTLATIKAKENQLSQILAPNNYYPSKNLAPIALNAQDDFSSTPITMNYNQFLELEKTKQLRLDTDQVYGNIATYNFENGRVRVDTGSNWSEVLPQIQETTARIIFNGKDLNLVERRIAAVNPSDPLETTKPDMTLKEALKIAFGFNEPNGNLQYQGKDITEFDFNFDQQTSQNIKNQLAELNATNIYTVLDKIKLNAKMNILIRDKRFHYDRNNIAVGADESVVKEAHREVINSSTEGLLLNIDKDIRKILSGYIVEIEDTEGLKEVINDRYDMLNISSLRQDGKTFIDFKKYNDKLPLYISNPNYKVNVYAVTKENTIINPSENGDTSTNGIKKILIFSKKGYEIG

T5 sequence (P13423 30-516 limits assumed): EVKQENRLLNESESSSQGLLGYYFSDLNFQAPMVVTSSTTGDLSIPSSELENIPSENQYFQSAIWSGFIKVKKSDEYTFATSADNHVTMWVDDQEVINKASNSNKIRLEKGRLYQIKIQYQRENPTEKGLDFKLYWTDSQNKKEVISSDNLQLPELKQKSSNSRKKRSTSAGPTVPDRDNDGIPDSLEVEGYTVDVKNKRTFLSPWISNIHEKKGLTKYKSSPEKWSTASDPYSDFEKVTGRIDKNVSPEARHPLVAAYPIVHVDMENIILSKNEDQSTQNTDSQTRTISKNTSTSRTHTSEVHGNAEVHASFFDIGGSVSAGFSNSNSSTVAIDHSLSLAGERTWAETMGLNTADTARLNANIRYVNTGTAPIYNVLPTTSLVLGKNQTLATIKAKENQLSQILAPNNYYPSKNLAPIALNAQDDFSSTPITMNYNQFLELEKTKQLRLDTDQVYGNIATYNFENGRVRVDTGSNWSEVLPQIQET
T4 sequence (P13423 625-764 limits assumed): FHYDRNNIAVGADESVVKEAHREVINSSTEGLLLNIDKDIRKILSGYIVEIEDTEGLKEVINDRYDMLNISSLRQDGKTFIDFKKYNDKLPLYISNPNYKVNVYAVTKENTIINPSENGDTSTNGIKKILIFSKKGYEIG
T1 sequence (P13423 30-287 limits assumed): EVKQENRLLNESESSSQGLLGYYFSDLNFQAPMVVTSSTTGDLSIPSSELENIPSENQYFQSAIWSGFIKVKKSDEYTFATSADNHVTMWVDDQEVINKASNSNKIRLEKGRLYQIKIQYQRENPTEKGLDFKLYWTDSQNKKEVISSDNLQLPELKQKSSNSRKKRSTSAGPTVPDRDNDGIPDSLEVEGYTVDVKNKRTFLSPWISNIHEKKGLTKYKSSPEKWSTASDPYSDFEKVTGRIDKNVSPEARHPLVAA
T3 sequence (P13423 517-764 limits assumed): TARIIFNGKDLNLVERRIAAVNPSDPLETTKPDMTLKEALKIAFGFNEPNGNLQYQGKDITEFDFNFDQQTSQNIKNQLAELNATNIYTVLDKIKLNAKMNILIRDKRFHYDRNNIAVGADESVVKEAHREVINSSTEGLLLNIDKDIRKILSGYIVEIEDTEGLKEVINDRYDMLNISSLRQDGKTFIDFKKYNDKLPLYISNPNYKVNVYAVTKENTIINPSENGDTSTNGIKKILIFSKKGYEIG
T2 sequence (P13423 30-764 limits assumed): as the sequence (P13423 30-764 limits assumed) above
T6 sequence (P13423 30-624 limits assumed): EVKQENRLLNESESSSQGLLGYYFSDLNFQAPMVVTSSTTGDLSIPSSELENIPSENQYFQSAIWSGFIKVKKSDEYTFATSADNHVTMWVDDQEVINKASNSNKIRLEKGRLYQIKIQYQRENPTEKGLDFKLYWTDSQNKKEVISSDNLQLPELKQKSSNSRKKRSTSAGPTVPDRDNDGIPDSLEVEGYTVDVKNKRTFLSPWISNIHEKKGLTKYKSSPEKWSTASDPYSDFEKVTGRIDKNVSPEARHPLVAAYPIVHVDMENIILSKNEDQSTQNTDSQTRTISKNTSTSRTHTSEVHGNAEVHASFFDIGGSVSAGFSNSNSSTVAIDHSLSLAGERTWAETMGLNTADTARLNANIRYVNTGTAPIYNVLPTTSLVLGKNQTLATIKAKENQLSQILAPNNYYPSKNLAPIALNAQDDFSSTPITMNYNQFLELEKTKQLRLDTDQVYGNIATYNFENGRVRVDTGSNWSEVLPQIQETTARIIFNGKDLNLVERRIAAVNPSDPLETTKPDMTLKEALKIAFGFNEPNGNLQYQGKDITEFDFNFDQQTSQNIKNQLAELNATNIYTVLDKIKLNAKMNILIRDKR

B1: human monoclonal antibody IQNPA-1 (antibody, V domains shown)
VH: QVQLVQSGAEVKKPGASVKVSCKASGYTFTSNAIQWVRQAPGQRLEWVGWINGGDGNTKYSQKFQGRVTISRDISASTAYMELSSLRSEDTAVYYCARHRLQRGGFDPWGQGTLVTVSS
VL: EIVLTQSPGTLSLSPGERATLSCRASQSVSYSSLAWYQQKPGQAPSLLIYGASSRATGIPDRFSGSGSGPDFTLTISRLEPEDFAVYYCQHYGNSPYTFGQGTKLEIKR
- End point titre [1]: < 100
- End point titre [2]: 256000
- End point titre [3]: 256000
- End point titre [4]: 256000
- End point titre [5]: < 100
- End point titre [6]: < 100
- Ka [7]: 8.31e+09 M⁻¹
- Kd [7]: 120 pM
- koff [7]: 1.93e-05 s⁻¹
- kon [7]: 160000 M⁻¹ s⁻¹

B2: human monoclonal antibody IQNPA-2 (antibody, V domains shown)
VH: B1 VH
VL: B1 VL
- End point titre [1]: < 100
- End point titre [2]: 128000
- End point titre [3]: 256000
- End point titre [4]: 128000
- End point titre [5]: < 100
- End point titre [6]: < 100
- Ka [7]: 9.86e+09 M⁻¹
- Kd [7]: 101 pM
- koff [7]: 1.81e-05 s⁻¹
- kon [7]: 178000 M⁻¹ s⁻¹
